Patent US20180371086A1 (Gilead, published 2018)

Assays:
Experiment in all cases: cell-based or functional assay
[1] = target: gp120 (HT593) expressed on human embryonic kidney (HEK) cells (HIV-1)
[2] = target: HIV-1 Env of virus MGRM-F1-018 (HIV-1)
[3] = target: HIV-1 Env of virus MGRM-C-005 (HIV-1)
[4] = target: HIV-1 Env of virus MGRM-F1-020 (HIV-1)
[5] = target: HIV-1 Env of virus MGRM-C-017 (HIV-1)
[6] = target: HIV-1 Env of virus MGRM-Chronic-B-023 (HIV-1)
[7] = target: HIV-1 Env of virus MGRM-G-001 (HIV-1)
[8] = target: HIV-1 Env of virus MGRM-C-012 (HIV-1)
[9] = target: HIV-1 Env of virus MGRM-C-008 (HIV-1)
[10] = target: HIV-1 Env of virus MGRM-A-013 (HIV-1)
[11] = target: HIV-1 Env of virus MGRM-AG-001 (HIV-1)
[12] = target: HIV-1 Env of virus MGRM-AG-008 (HIV-1)
[13] = target: HIV-1 Env of virus MGRM-AG-009 (HIV-1)
[14] = target: HIV-1 Env of virus MGRM-D-014 (HIV-1)
[15] = target: HIV-1 Env of virus MGRM-C-027 (HIV-1)
[16] = target: HIV-1 Env of virus MGRM-C-013 (HIV-1)
[17] = target: HIV-1 Env of virus MGRM-Acute-B-010 (HIV-1)
[18] = target: HIV-1 Env of virus MGRM-F1-006 (HIV-1)
[19] = target: HIV-1 Env of virus MGRM-D-002 (HIV-1)
[20] = target: HIV-1 Env of virus MGRM-A-010 (HIV-1)
[21] = target: HIV-1 Env of virus MGRM-C-016 (HIV-1)
[22] = target: HIV-1 Env of virus MGRM-F1-012 (HIV-1)
[23] = target: HIV-1 Env of virus MGRM-Chronic-B-014 (HIV-1)
[24] = target: HIV-1 Env of virus MGRM-Acute-B-004 (HIV-1)
[25] = target: HIV-1 Env of virus MGRM-Chronic-B-001 (HIV-1)
[26] = target: HIV-1 Env of virus MGRM-C-007 (HIV-1)
[27] = target: HIV-1 Env of virus MGRM-AG-007 (HIV-1)
[28] = target: HIV-1 Env of virus MGRM-Chronic-B-016 (HIV-1)
[29] = target: HIV-1 Env of virus MGRM-F1-016 (HIV-1)
[30] = target: HIV-1 Env of virus MGRM-G-017 (HIV-1)
[31] = target: HIV-1 Env of virus MGRM-F1-004 (HIV-1)

B1: PGT121.60 hIgG1/hLambda (antibody)
heavy: QMQLQESGPGLVKPSETLSLTCSVSGASISDSYWSWIRRSPGKGLEWIGYVHKSGDTNYNPSLKSRVHLSLDTSKNQVSLSLTGVTAADSGKYYCARTLHGRRIYGIVAFNEWFTYFYMDVWGTGTQVTVSSASTKGPSVFPLAPSSKSTSGGTAALGCLVKDYFPEPVTVSWNSGALTSGVHTFPAVLQSSGLYSLSSVVTVPSSSLGTQTYICNVNHKPSNTKVDKKVEPKSCDKTHTCPPCPAPELLAGPDVFLFPPKPKDTLMISRTPEVTCVVVDVSHEDPEVKFNWYVDGVEVHNAKTKPREEQYNSTYRVVSVLTVLHQDWLNGKEYKCKVSNKALPLPEEKTISKAKGQPREPQVYTLPPSREEMTKNQVSLTCLVKGFYPSDIAVEWESNGQPENNYKTTPPVLDSDGSFFLYSKLTVDKSRWQQGNVFSCSVLHEALHSHYTQKSLSLSPGK
light: not shown
In the case of B1, the “% ADCC Activity (ADCC reporter cell based assay; sample stressed at 25° C. for 4 weeks, relative to its untreated control)” value [1] is reported as 65%, the “PGT121.60 IC50” value [2] is reported as 0.0201 µg/mL and the “PGT121.60 IC50” value [3] is reported as 0.0078 µg/mL. The “PGT121.60 IC50” value [4] was 0.041 µg/mL, the “PGT121.60 IC50” value [5] was 0.0058 µg/mL and the “PGT121.60 IC50” value [6] was 0.0034 µg/mL. For the same binder, the “PGT121.60 IC50” value [7] was 0.005 µg/mL, the “PGT121.60 IC50” value [8] was 0.0338 µg/mL and the “PGT121.60 IC50” value [9] was 0.0044 µg/mL. For the same binder, the “PGT121.60 IC50” value [10] was 0.0561 µg/mL, the “PGT121.60 IC50” value [11] was 1.44 µg/mL and the “PGT121.60 IC50” value [12] was 1.71 µg/mL. For the same binder, the “PGT121.60 IC50” value [13] was 0.0868 µg/mL, the “PGT121.60 IC50” value [14] was 0.0019 µg/mL and the “PGT121.60 IC50” value [15] was 0.0038 µg/mL. For the same binder, the “PGT121.60 IC50” value [16] was 12.3 µg/mL, the “PGT121.60 IC50” value [17] was 0.0328 µg/mL and the “PGT121.60 IC50” value [18] was 2.33 µg/mL. The “PGT121.60 IC50” value [19] was 0.0015 µg/mL, the “PGT121.60 IC50” value [20] was 0.745 µg/mL and the “PGT121.60 IC50” value [21] was 0.0137 µg/mL. The “PGT121.60 IC50” value [22] was 1.19 µg/mL, the “PGT121.60 IC50” value [23] was 0.133 µg/mL and the “PGT121.60 IC50” value [24] was 0.0497 µg/mL. For the same binder, the “PGT121.60 IC50” value [25] was 0.0985 µg/mL, the “PGT121.60 IC50” value [26] was 0.199 µg/mL and the “PGT121.60 IC50” value [27] was 0.108 µg/mL. The “PGT121.60 IC50” value [28] was 0.0283 µg/mL, the “PGT121.60 IC50” value [29] was 0.522 µg/mL and the “PGT121.60 IC50” value [30] was 0.0255 µg/mL. The “PGT121.60 IC50” value [31] was 0.547 µg/mL.
